{"source": "paper PMC11580166", "about": "“VPS26 Moonlights as a β-Arrestin-like Adapter for a 7-Transmembrane RGS Protein in Arabidopsis thaliana” (Biochemistry, 2024)", "molecules": {"B1": {"name": "VPS26A/VPS26B heterodimer (complex, Arabidopsis thaliana)", "chain 1": "MNYLLGAFKPACNISITFTDGKNRKQVPTKKDNGQIVMNPLFQSQETIAGKINIEPYQGKKVEHNGVKVELLGQIEMYFDRGNFYDFTSLVREIDVPGEIYERKTYPFEFSSVEMPYETYNGVNVRLRYVLKVTVTRGYAGSIVEYQDFVVRNYVPLPPINNSIKMEVGIEDCLHIEFEYNKSKYHLKDVILGKIYFLLVRIKIKNMDLEIRRRESTGAGANTHVETETLAKFELMDGAPVRGESIPVRVFLTPYDLTPTHKNINNKFSVKYYLNLVLVDEEDRRYFKQQEITLYRLKEETS", "chain 2": "MNYLLGAFKPACNISITFSDGKNRKQVPMKKENGQTALVPLFHSQDTISGKVCIEPYQGKKVEHNGVKVELLGQIEMYFDRGNFYDFTSLVRELDVPGEIYERKTYPFEFPTVEMPYETYNGVNVRLRYVLKVTVTRGYAGSILEYQELVVRNYAPLPDINNSIKMEVGIEDCLHIEFEYNKSKYHLKDVILGKIYFLLVRIKMKNMDLEIRRRESTGAGANTHVETETLAKFELMDGTPVRGESIPVRLFLAPYDLTPTHRNINNKFSVKYYLNLVLVDEEDRRYFKQQEITLYRLKEDASS", "notes": "AtVPS26A, Arabidopsis thaliana, UniProt Q9FJD0, as m1; AtVPS26B, Arabidopsis thaliana, UniProt Q9T091, as m2; In the number-and-brightness rows the id stands for the endogenous heterodimer of the plant; also called VPS26A/B; VPS26A/B dimer; source: E. coli BL21 (DE3), each subunit purified, mixed; copies: 1 + 1"}, "B2": {"name": "Vacuolar Protein Sorting-Associated 26A (AtVPS26A) (natural protein, Arabidopsis thaliana, UniProt Q9FJD0 1-302, looked up)", "chain": "MNYLLGAFKPACNISITFTDGKNRKQVPTKKDNGQIVMNPLFQSQETIAGKINIEPYQGKKVEHNGVKVELLGQIEMYFDRGNFYDFTSLVREIDVPGEIYERKTYPFEFSSVEMPYETYNGVNVRLRYVLKVTVTRGYAGSIVEYQDFVVRNYVPLPPINNSIKMEVGIEDCLHIEFEYNKSKYHLKDVILGKIYFLLVRIKIKNMDLEIRRRESTGAGANTHVETETLAKFELMDGAPVRGESIPVRVFLTPYDLTPTHKNINNKFSVKYYLNLVLVDEEDRRYFKQQEITLYRLKEETS", "notes": "AtVPS26A, Arabidopsis thaliana, UniProt Q9FJD0, gene At5g53530; Fluorescently labelled (Monolith RED-NHS or RED-MALEIMIDE kit) when it was the labelled partner in MST; the His-SUMO tag may have been kept in mass photometry (surmise); also called AtVSP26A; source: E. coli BL21 (DE3), purified (nickel resin, ULP1 cleavage, second nickel, SEC)"}}, "key": {"[1]": {"biological_target": "AtGPA1 (Arabidopsis thaliana) (UniProt P18064)", "sequence (P18064 2-383)": "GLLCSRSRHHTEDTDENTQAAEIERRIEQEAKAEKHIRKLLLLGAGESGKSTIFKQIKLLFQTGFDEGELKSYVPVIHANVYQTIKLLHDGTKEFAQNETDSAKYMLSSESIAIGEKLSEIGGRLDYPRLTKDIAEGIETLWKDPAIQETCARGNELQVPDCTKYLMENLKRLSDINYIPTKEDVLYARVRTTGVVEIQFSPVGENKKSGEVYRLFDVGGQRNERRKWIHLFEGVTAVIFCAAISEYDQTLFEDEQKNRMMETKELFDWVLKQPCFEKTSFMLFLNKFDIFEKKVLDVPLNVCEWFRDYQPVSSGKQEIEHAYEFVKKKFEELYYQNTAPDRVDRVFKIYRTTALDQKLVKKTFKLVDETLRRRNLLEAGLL", "details": "cited from earlier work"}, "[2]": {"biological_target": "T1, VPS26A/VPS26B heterodimer (Arabidopsis thaliana, UniProt Q9FJD0 1-302; Q9T091 1-303)", "T1 chain 1": "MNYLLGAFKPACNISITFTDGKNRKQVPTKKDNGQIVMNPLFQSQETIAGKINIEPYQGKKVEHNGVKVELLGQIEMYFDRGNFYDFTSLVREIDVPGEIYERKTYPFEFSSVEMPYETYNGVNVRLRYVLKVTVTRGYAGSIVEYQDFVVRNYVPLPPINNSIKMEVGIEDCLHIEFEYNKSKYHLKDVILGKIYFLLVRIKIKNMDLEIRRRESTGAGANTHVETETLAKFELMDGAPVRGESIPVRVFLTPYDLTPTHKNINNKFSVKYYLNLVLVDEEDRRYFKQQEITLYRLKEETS", "T1 chain 2": "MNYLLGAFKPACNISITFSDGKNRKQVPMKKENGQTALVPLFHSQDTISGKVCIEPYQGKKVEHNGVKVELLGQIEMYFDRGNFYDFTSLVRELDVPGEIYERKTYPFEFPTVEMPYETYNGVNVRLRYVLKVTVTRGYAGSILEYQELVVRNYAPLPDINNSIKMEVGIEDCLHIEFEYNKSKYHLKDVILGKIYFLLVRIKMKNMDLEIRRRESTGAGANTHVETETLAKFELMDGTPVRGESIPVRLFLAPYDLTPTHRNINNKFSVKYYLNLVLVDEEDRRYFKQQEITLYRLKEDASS", "assay": "ITC"}, "[3]": {"biological_target": "B1", "assay": "MST; 20 nM fluorescence-labelled protein (RED-NHS or RED-MALEIMIDE), ligand dilution series, 25 °C, PBS pH 7.4, 0.05% Tween-20; apparent Kd; averages of 2 to 4 experiments", "details": "both partners purified"}, "[4]": {"biological_target": "B2", "assay": "MST; 20 nM fluorescence-labelled protein (RED-NHS or RED-MALEIMIDE), ligand dilution series, 25 °C, PBS pH 7.4, 0.05% Tween-20; apparent Kd; averages of 2 to 4 experiments", "details": "both partners purified"}, "[5]": {"biological_target": "T2, Full-length AtRGS1 with a phosphorylated C-tail peptide ligated by sortase A (Arabidopsis thaliana, phosphoserine at 428, 431 and 435)", "T2 chain": "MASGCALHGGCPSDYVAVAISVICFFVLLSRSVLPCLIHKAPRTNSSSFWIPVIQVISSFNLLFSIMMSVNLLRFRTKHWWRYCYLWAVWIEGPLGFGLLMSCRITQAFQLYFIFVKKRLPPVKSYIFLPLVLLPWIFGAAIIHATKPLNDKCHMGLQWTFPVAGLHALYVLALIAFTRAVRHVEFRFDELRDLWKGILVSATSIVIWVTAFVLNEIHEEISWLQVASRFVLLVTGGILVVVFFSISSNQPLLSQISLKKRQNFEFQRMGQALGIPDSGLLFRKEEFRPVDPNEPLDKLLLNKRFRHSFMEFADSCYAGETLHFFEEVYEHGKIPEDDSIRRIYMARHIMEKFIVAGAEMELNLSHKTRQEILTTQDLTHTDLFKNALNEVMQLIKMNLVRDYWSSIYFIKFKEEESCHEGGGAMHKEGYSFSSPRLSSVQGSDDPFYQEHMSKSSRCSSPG", "assay": "mass photometry; purified AtRGS1 in detergent micelle (mixture of about 50% tail-ligated and truncated protein) with VPS26A/B heterodimer added", "details": "both partners purified"}, "[6]": {"biological_target": "T3, Vacuolar Protein Sorting-Associated 26B (AtVPS26B) (Arabidopsis thaliana, UniProt Q9T091 1-303)", "T3 construct": "AtVPS26B, Arabidopsis thaliana, UniProt Q9T091, gene At4g27690; the His-SUMO tag may have been kept in mass photometry (surmise); also called VSP26B; source: E. coli BL21 (DE3), purified (nickel resin, ULP1 cleavage, second nickel, SEC)", "assay": "MST; 20 nM fluorescence-labelled protein (RED-NHS or RED-MALEIMIDE), ligand dilution series, 25 °C, PBS pH 7.4, 0.05% Tween-20; apparent Kd; averages of 2 to 4 experiments", "details": "both partners purified"}, "[7]": {"biological_target": "T1, VPS26A/VPS26B heterodimer", "assay": "ITC; phosphorylated S428, S431, S435"}, "[8]": {"biological_target": "T4, Vacuolar Protein Sorting-Associated 26A (AtVPS26A) (Arabidopsis thaliana, UniProt Q9FJD0 1-302)", "T4 chain": "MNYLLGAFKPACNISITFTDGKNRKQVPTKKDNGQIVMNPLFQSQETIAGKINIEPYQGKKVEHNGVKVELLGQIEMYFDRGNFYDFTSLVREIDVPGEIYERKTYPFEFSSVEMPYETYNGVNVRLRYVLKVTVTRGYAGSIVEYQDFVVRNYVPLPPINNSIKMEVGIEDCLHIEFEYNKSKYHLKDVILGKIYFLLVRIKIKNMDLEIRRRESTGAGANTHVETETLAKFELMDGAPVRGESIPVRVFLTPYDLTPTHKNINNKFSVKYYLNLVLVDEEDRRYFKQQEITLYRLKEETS", "assay": "ITC; phosphorylated S428, S431, S435"}, "[9]": {"biological_target": "T5, Vacuolar Protein Sorting-Associated 26B (AtVPS26B) (Arabidopsis thaliana, UniProt Q9T091 1-303)", "T5 chain": "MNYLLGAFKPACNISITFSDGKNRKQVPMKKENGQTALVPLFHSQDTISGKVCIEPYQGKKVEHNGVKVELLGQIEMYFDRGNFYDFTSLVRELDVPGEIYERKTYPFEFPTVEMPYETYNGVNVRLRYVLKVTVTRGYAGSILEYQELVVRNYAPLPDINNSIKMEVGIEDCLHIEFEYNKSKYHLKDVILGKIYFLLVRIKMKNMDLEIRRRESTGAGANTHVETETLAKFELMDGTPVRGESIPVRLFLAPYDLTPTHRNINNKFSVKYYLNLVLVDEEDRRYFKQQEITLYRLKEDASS", "assay": "ITC; phosphorylated S428, S431, S435"}, "[10]": {"biological_target": "T4, Vacuolar Protein Sorting-Associated 26A …", "assay": "ITC"}, "[11]": {"biological_target": "T5, Vacuolar Protein Sorting-Associated 26B …", "assay": "ITC"}, "[12]": {"biological_target": "Vacuolar Protein Sorting-Associated 26A (AtVPS26A) (Arabidopsis thaliana) (UniProt Q9FJD0)", "assay": "MST; 20 nM fluorescence-labelled protein (RED-NHS or RED-…), ligand dilution series, 25 °C, PBS pH 7.4, 0.05% Tween-20; apparent Kd; averages of 2 to 4 experiments"}, "[13]": {"biological_target": "Vacuolar Protein Sorting-Associated 26B (AtVPS26B) (Arabidopsis thaliana) (UniProt Q9T091)", "assay": "MST; 20 nM fluorescence-labelled protein (RED-NHS or RED-…), ligand dilution series, 25 °C, PBS pH 7.4, 0.05% Tween-20; apparent Kd; averages of 2 to 4 experiments"}}, "note": "Where no end group is shown, it is not given here. [ ]: non-standard residue; d: D form. pS = N[C@@H](COP(=O)(O)O)C(=O)O", "data": [{"molecule": "AtRGS1 (from UniProt Q8H1F2)", "values": [{"measurement": "Kd", "setting": "[1]", "value": 125, "unit": "nM"}]}, {"molecule": "GGGAMHKEGYSFSSPRLSSVQGSDDPFYQE (N-terminal GGG added to the peptide; AtRGS1 C-terminal tail, Arabidopsis thaliana, UniProt Q8H1F2, residues A421-E447; also called ΔC tail; RGS1 delta C-tail; source: synthetic peptide (Tufts University Peptide Core Facility))", "note": "[AtRGS1 truncated C tail peptide (A421-E447), unphosphorylated]", "values": [{"measurement": "Kd", "setting": "[2]", "value": 123, "unit": "nM"}, {"measurement": "binding result", "setting": "[3]", "value": "binds"}]}, {"molecule": "VPS26B Y85A/E93A mutant (natural protein, Arabidopsis thaliana, UniProt Q9T091 1-303, looked up, AtVPS26B, Arabidopsis thaliana, UniProt Q9T091, with Y85A and E93A) MNYLLGAFKPACNISITFSDGKNRKQVPMKKENGQTALVPLFHSQDTISGKVCIEPYQGKKVEHNGVKVELLGQIEMYFDRGNFADFTSLVRALDVPGEIYERKTYPFEFPTVEMPYETYNGVNVRLRYVLKVTVTRGYAGSILEYQELVVRNYAPLPDINNSIKMEVGIEDCLHIEFEYNKSKYHLKDVILGKIYFLLVRIKMKNMDLEIRRRESTGAGANTHVETETLAKFELMDGTPVRGESIPVRLFLAPYDLTPTHRNINNKFSVKYYLNLVLVDEEDRRYFKQQEITLYRLKEDASS", "values": [{"measurement": "fold lower heterodimerization than VPS26B wildtype", "setting": "[4]", "value": "~10", "unit": "fold"}]}, {"molecule": "B1", "values": [{"measurement": "stoichiometry N", "setting": "[5]", "value": 1}]}, {"molecule": "B2", "values": [{"measurement": "Kd", "setting": "[6]", "value": "~18", "unit": "nM"}]}, {"molecule": "GGGAMHKEGY[pS]FS[pS]PRL[pS]SVQGSDDPFYQEHMSKSSRCSSPG (N-terminal GGG added to the peptide; AtRGS1 C-terminal tail, Arabidopsis thaliana, UniProt Q8H1F2, residues A421-G459; Purity 87%; also called RGS1 pC-tail; ptail; source: synthetic peptide (UNC Peptide Core Facility))", "note": "[AtRGS1 pSer C tail peptide (A421-G459, phosphorylated at S428, S431, S435)]", "values": [{"measurement": "fold higher affinity than the unphosphorylated C-tail", "setting": "[3]", "value": "~5", "unit": "fold"}, {"measurement": "Kd", "setting": "[7]", "value": 12, "unit": "nM"}, {"measurement": "Kd", "setting": "[8]", "value": 71, "unit": "nM"}, {"measurement": "Kd", "setting": "[9]", "value": 17, "unit": "nM"}]}, {"molecule": "AtRGS1 RGS domain plus C-terminal tail (residues 284-459) (domain or fragment) KEEFRPVDPNEPLDKLLLNKRFRHSFMEFADSCYAGETLHFFEEVYEHGKIPEDDSIRRIYMARHIMEKFIVAGAEMELNLSHKTRQEILTTQDLTHTDLFKNALNEVMQLIKMNLVRDYWSSIYFIKFKEEESCHEAMHKEGYSFSSPRLSSVQGSDDPFYQEHMSKSSRCSSPG", "values": [{"measurement": "Kd", "setting": "[2]", "value": 22, "unit": "nM"}, {"measurement": "Kd", "setting": "[10]", "value": 38, "unit": "nM"}, {"measurement": "Kd", "setting": "[11]", "value": 40, "unit": "nM"}, {"measurement": "Kd", "setting": "[12]", "value": 34, "unit": "nM"}, {"measurement": "Kd", "setting": "[13]", "value": 35, "unit": "nM"}]}, {"molecule": "GGGAMHKEGYSFSSPRLSSVQGSDDPFYQEHMSKSSRCSSPG (N-terminal GGG added to the peptide; AtRGS1 C-terminal tail, Arabidopsis thaliana, UniProt Q8H1F2, residues A421-G459; Purity 99%; also called unphosphorylated C-tail; source: synthetic peptide (UNC Peptide Core Facility))", "note": "[AtRGS1 C tail peptide (A421-G459), unphosphorylated]", "values": [{"measurement": "Kd", "setting": "[2]", "value": 63, "unit": "nM"}, {"measurement": "Kd", "setting": "[10]", "value": 317, "unit": "nM"}, {"measurement": "Kd", "setting": "[4]", "value": 217, "unit": "nM"}, {"measurement": "Kd", "setting": "[6]", "value": 253, "unit": "nM"}]}]}
